The record followed here is article PMC10075959.

This series deals with FL-N nucleocapsid protein (SARS-CoV-2, UniProt P0DTC9 1-419). In words: sedimentation velocity AUC. The following applies: protein: commercial; chain copies: 2; single strand.

In the case of TTTTTTTTTT (ssDNA) [T10], the binding result is “binds”.
